{
  "source": "patent US7595168B2",
  "about": "“Method of screening for substances useful for transdifferentiation of microglia into neurons” (Eisai R&D Management Co., Ltd., priority 2006, dated 2009)",
  "system": "microglia",
  "experiment": "Action of BMP on transdifferentiation of microglia into neurons; immunocytochemical marker quantification",
  "assay_type": "cell-based, rat",
  "conditions": "day 5 after enrichment; 100 ng/ml noggin in medium containing 70% FCS, 2 days",
  "description": "The cerebral cortex was isolated from newborn Wistar rats aged from 0 to 1 day (obtained from Shimizu Experimental Material Co. Ltd.) and cultured in an Eagle's minimum essential medium (EMEM) supplemented with 10% fetal calf serum (FCS) and […] insulin at 37° C. in an atmosphere of 5% CO2. After 14 to 16 days of incubation, microglia were isolated and prepared by the enriching procedure.\nThe cells were fixed with 4% paraformaldehyde and then reacted individually with an anti-CD11b antibody ([…], Chemicon International) or an anti-MAP2 antibody ([…], DakoCytomation) as a primary antibody and with Cy2-conjugated goat anti-mouse IgG (H+L) (Jackson ImmunoResearch) or Cy3-conjugated goat anti-rabbit IgG (H+L) (Jackson ImmunoResearch) as a secondary antibody. The CD11b is a marker for microglia and the MAP2 is a marker for neurons. […]\nAfter immunostaining the cells, images (200× magnification) of 8 fields per case were randomly obtained using a fluorescent microscope and MataMorph software (Molecular Devices). The numbers of cells expressing individual markers were counted and the average rates to the total number of cells were used as data. […]\nQuantification was carried out in the same manner as in Example 1.",
  "data": [
    {"molecule": "noggin: a BMP inhibitor (N6784), Sigma (protein, UniProt Q13253 28-232, looked up) Noggin: QHYLHIRPAPSDNLPLVDLIEHPDPIFDPKEKDLNETLLRSLLGGHYDPGFMATSPPEDRPGGGGGAAGGAEDLAELDQLLRQRPSGAMPSEIKGLEFSEGLAQGKKQRLSKKLRRKLQMWLWSQTFCPVLYAWNDLGSRFWPRYVKVGSCFSKRSCSVPEGMVCKPSKSVHLTVLRWRCQRRGGQRCGWIPIQYPIISECKCSC", "values": [
      {"measurement": "effect on transdifferentiation of microglia into neurons by 70% serum", "result": "this transdifferentiation was suppressed"}
    ]}
  ]
}
